Test results reported in article PMC3937768 (Cell metabolism, 2014).

Target: the molecule itself
Test: non-reducing SDS-PAGE with immunoblot

B1: Recombinant AMPKα2 (enzyme, rat, UniProt Q09137 1-552, looked up)
chain: MAEKQKHDGRVKIGHYVLGDTLGVGTFGKVKIGEHQLTGHKVAVKILNRQKIRSLDVVGKIKREIQNLKLFRHPHIIKLYQVISTPTDFFMVMEYVSGGELFDYICKHGRVEEVEARRLFQQILSAVDYCHRHMVVHRDLKPENVLLDAQMNAKIADFGLSNMMSDGEFLRTSCGSPNYAAPEVISGRLYAGPEVDIWSCGVILYALLCGTLPFDDEHVPTLFKKIRGGVFYIPEYLNRSIATLLMHMLQVDPLKRATIKDIREHEWFKQDLPSYLFPEDPSYDANVIDDEAVKEVCEKFECTESEVMNSLYSGDPQDQLAVAYHLIIDNRRIMNQASEFYLASSPPTGSFMDDMAMHIPPGLKPHPERMPPLIADSPKARCPLDALNTTKPKSLAVKKAKWHLGIRSQSKPYDIMAEVYRAMKQLDFEWKVVNAYHLRVRRKNPVTGNYVKMSLQLYLVDNRSYLLDFKSIDDEVVEQRSGSSTPQRSCSAAGLHRPRSSVDSSTAENHSLSGSLTGSLTGSTLSSASPRLGSHTMDFFEMCASLITALAR
B1: binds.
